Assay results taken from patent US20200370085A1.

Target: VEGF (UniProt P15692)
Assay: solution equilibrium titration (SET) ELISA, crude IVT product 1:400, monovalent fit

UniProt P15692, sequence (P15692 other isoform, or with tags, fused parts or gaps limits assumed): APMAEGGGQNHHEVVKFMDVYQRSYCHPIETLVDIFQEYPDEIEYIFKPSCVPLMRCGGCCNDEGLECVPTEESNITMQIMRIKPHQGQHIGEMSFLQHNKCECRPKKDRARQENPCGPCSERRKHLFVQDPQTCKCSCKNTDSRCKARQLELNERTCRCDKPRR

**Q.** Which Kd does the source give for [S105T] Avastin scFv here?
**A.** Its Kd is 8.99 pM.

**Q.** [N31H] Avastin scFv was tested. Which Kd did it give?
**A.** Its Kd is 4.03 pM.

**Q.** With [H101Y] Avastin scFv as the substance, how does the Kd read?
**A.** The Kd was 11.1 pM.
